Source: the supplement of paper PMC10567573

B1: CRYL1 (parent)
chain: RNALENIRKEMKLLEQAGSLKGSL

Variants of: B1
Assay: protein stability index of a GFP-peptide fusion (GPS, HEK-293T) (PSI 1-6); higher = more stable
Conditions: c terminus: a fixed tail appended
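Also: lentivirally expressed fusions sorted by FACS into six bins by GFP to DsRed ratio, PSI derived from sequencing read proportions per bin multiplied by bin number.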

Compared with RNALENIRKEMKLLEQAGGLKGSL [S19G], RNALENIRKEMKLLEQAGHLKGSL [S19H] is lower in protein stability index: 3.12 for the first, 3.04 for the second.

First: RNALENIRKEMKLLEQAGVLKGSL [S19V]
Second: RNALENIRKEMKLLEQAGILKGSL [S19I]
The protein stability index of the first is higher: 2.66 for the first, 2.62 for the second.

Compared with RNALENIRKEMKLLEQAGPLKGSL [S19P], RNALENIRKEMKLLEQAGYLKGSL [S19Y] is lower in protein stability index: 3.54 for the first, 2.17 for the second.

Compared with RNALENIRKEMKLLEQAGKLKGSL [S19K], RNALENIRKEMKLLEQAGFLKGSL [S19F] is lower in protein stability index: 3.42 for the first, 1.9 for the second.

Going from RNALENIRKEMKLLEQAGALKGSL [S19A] to RNALENIRKEMKLLEQAGMLKGSL [S19M], the protein stability index rises from 2.51 to 2.56.

Going from RNALENIRKEMKLLEQAGQLKGSL [S19Q] to RNALENIRKEMKLLEQAGRLKGSL [S19R], the protein stability index rises from 2.85 to 3.08.

First: RNALENIRKEMKLLEQAGDLKGSL [S19D]
Second: RNALENIRKEMKLLEQAGTLKGSL [S19T]
The protein stability index of the first is higher: 3.71 for the first, 3.22 for the second.

First: RNALENIRKEMKLLEQAGNLKGSL [S19N]
Second: RNALENIRKEMKLLEQAGELKGSL [S19E]
The protein stability index of the first is lower: 3.66 for the first, 4.14 for the second.

First: RNALENIRKEMKLLEQAGLLKGSL [S19L]
Second: RNALENIRKEMKLLEQAGWLKGSL [S19W]
The protein stability index of the first is higher: 2.36 for the first, 2.03 for the second.

First: RNALENIRKEMKILEQAGSLKGSL [L13I]
Second: RNALENIRKEMKTLEQAGSLKGSL [L13T]
The protein stability index of the first is higher: 3.77 for the first, 3.04 for the second.

Going from RNALENIRKEMKHLEQAGSLKGSL [L13H] to RNALENIRKEMKKLEQAGSLKGSL [L13K], the protein stability index falls from 4.32 to 3.87.

First: RNALENIRKEMKQLEQAGSLKGSL [L13Q]
Second: RNALENIRKEMKSLEQAGSLKGSL [L13S]
The protein stability index of the first is higher: 4.5 for the first, 4.04 for the second.

Going from RNALENIRKEMKGLEQAGSLKGSL [L13G] to RNALENIRKEMKPLEQAGSLKGSL [L13P], the protein stability index rises from 4.1 to 4.52.

First: RNALENIRKEMKDLEQAGSLKGSL [L13D]
Second: RNALENIRKEMKFLEQAGSLKGSL [L13F]
The protein stability index of the first is higher: 4.12 for the first, 2.85 for the second.

Going from RNALENIRKEMKYLEQAGSLKGSL [L13Y] to RNALENIRKEMKELEQAGSLKGSL [L13E], the protein stability index rises from 2.98 to 3.94.

Compared with RNALENIRKEMKRLEQAGSLKGSL [L13R], RNALENIRKEMKNLEQAGSLKGSL [L13N] is lower in protein stability index: 3.66 for the first, 3.53 for the second.

Compared with RNALENIRKEMKALEQAGSLKGSL [L13A], RNALENIRKEMTLLEQAGSLKGSL [K12T] is lower in protein stability index: 3.89 for the first, 3.54 for the second.

Going from RNALENIRKEMLLLEQAGSLKGSL [K12L] to RNALENIRKEMCLLEQAGSLKGSL [K12C], the protein stability index falls from 3.55 to 3.43.

Going from RNALENIRKEMRLLEQAGSLKGSL [K12R] to RNALENIRKEMHLLEQAGSLKGSL [K12H], the protein stability index rises from 3.06 to 3.46.

First: RNALENIRKEMNLLEQAGSLKGSL [K12N]
Second: RNALENIRKEMMLLEQAGSLKGSL [K12M]
The protein stability index of the first is higher: 3.36 for the first, 2.89 for the second.

Going from RNALENIRKEMDLLEQAGSLKGSL [K12D] to RNALENIRKEMFLLEQAGSLKGSL [K12F], the protein stability index falls from 4.23 to 2.39.

Compared with RNALENIRKEMALLEQAGSLKGSL [K12A], RNALENIRKEMPLLEQAGSLKGSL [K12P] is higher in protein stability index: 3.46 for the first, 4.57 for the second.

Going from RNALENIRKEMELLEQAGSLKGSL [K12E] to RNALENIRKEMSLLEQAGSLKGSL [K12S], the protein stability index rises from 3.38 to 3.53.

Compared with RNALENIRKEMILLEQAGSLKGSL [K12I], RNALENIRKEMYLLEQAGSLKGSL [K12Y] is higher in protein stability index: 3.46 for the first, 3.75 for the second.

First: RNALENIRKEMQLLEQAGSLKGSL [K12Q]
Second: RNALENIRKEMWLLEQAGSLKGSL [K12W]
The protein stability index of the first is higher: 3.31 for the first, 1.72 for the second.

Compared with RNALENIRKEMKLLEQAGSLKDSL [G22D], RNALENIRKEMKLLEQAGSLKCSL [G22C] is lower in protein stability index: 4.1 for the first, 2.65 for the second.

Going from RNALENIRKEMKLLEQAGSLKASL [G22A] to RNALENIRKEMKLLEQAGSHKGSL [L20H], the protein stability index rises from 3.21 to 3.99.

Going from RNALENIRKEMKLLEQAGSQKGSL [L20Q] to RNALENIRKEMKLLEQAGSKKGSL [L20K], the protein stability index falls from 4.71 to 4.55.

Going from RNALENIRKEMKLLEQAGSPKGSL [L20P] to RNALENIRKEMKLLEQAGSNKGSL [L20N], the protein stability index rises from 4.09 to 4.28.

First: RNALENIRKEMKLLEQAGSRKGSL [L20R]
Second: RNALENIRKEMKLLEQAGSWKGSL [L20W]
The protein stability index of the first is higher: 4.17 for the first, 2.9 for the second.

Compared with RNALENIRKEMKLLEQAGSDKGSL [L20D], RNALENIRKEMKLLEQAGSYKGSL [L20Y] is lower in protein stability index: 4.16 for the first, 3.9 for the second.

Compared with RNALENIRKEMKLLEQAGSGKGSL [L20G], RNALENIRKEMKLLEQAGSTKGSL [L20T] is lower in protein stability index: 4.08 for the first, 3.56 for the second.

Compared with RNALENIRKEMKLLEQAGSVKGSL [L20V], RNALENIRKEMKLLEQAGSEKGSL [L20E] is higher in protein stability index: 4.17 for the first, 4.79 for the second.

First: RNALENIRKEMKLLEQAGSSKGSL [L20S]
Second: RNALENIRKEMKLLEQAGSFKGSL [L20F]
The protein stability index of the first is higher: 3.98 for the first, 2.86 for the second.

Compared with RNALENIRKEMKLLEQAGSMKGSL [L20M], RNALENIRKEMKLLEQAGSCKGSL [L20C] is higher in protein stability index: 2.84 for the first, 3.65 for the second.

First: RNALENIRKEMKLLEQAGSLFGSL [K21F]
Second: RNALENIRKEMKLLEQAGSLRGSL [K21R]
The protein stability index of the first is lower: 2.35 for the first, 2.68 for the second.

Going from RNALENIRKEMKLLEQAGSLGGSL [K21G] to RNALENIRKEMKLLEQAGSLNGSL [K21N], the protein stability index rises from 2.56 to 3.34.

Compared with RNALENIRKEMKLLEQAGSLCGSL [K21C], RNALENIRKEMKLLEQAGSLEGSL [K21E] is higher in protein stability index: 3.3 for the first, 3.93 for the second.

Compared with RNALENIRKEMKLLEQAGSLQGSL [K21Q], RNALENIRKEMKLLEQAGSLDGSL [K21D] is higher in protein stability index: 3.18 for the first, 3.55 for the second.

Compared with RNALENIRKEMKLLEQAGSLYGSL [K21Y], RNALENIRKEMKLLEQAGSLWGSL [K21W] is lower in protein stability index: 2.78 for the first, 2.17 for the second.

Going from RNALENIRKEMKLLEQAGSLPGSL [K21P] to RNALENIRKEMKLLEQAGSLAGSL [K21A], the protein stability index falls from 2.79 to 2.71.

First: RNALENIRKEMKLLEQAGSLLGSL [K21L]
Second: RNALENIRKEMKLLEQAGSLVGSL [K21V]
The protein stability index of the first is lower: 2.37 for the first, 2.73 for the second.

First: RNALENIRKEMKLLEQAGSLSGSL [K21S]
Second: RNALENIRKEMKLLEQAGSLIGSL [K21I]
The protein stability index of the first is higher: 3.46 for the first, 2.4 for the second.

Compared with RNALENIRKEMKLLEQAGSLTGSL [K21T], RNALENIRKERKLLEQAGSLKGSL [M11R] is higher in protein stability index: 3.6 for the first, 4.01 for the second.

Compared with RNALENIRKELKLLEQAGSLKGSL [M11L], RNALENIRKESKLLEQAGSLKGSL [M11S] is higher in protein stability index: 3.1 for the first, 4.92 for the second.

First: RNALENIRKEQKLLEQAGSLKGSL [M11Q]
Second: RNALENIRKEWKLLEQAGSLKGSL [M11W]
The protein stability index of the first is higher: 3.93 for the first, 2.21 for the second.

Compared with RNALENIRKEVKLLEQAGSLKGSL [M11V], RNALENIRKETKLLEQAGSLKGSL [M11T] is higher in protein stability index: 3.23 for the first, 4.37 for the second.
